Assay [1] has as its target CCR5 chemokine receptor on the cell surface (UniProt P51681). Kind of assay: flow cytometry on PHA/IL-2-stimulated PBMC. (A flow cytometer gives signals particle by particle.)
For assay [2] the target is unchanged.
Assay [3] has the same target. Kind of assay: cell-based or functional assay.
Assay [4] shares this target. Kind of assay: flow cytometry on L1.2-CCR5+ cells, PE anti-mouse IgG.
The target of assay [5] is HIV-1JR-FL envelope glycoprotein gp120/gp41 on HeLa-EnvJR-FL+ cells (HIV-1 JR-FL). Kind of assay: cell-based or functional assay.

Chain of UniProt P51681 (P51681 whole entry): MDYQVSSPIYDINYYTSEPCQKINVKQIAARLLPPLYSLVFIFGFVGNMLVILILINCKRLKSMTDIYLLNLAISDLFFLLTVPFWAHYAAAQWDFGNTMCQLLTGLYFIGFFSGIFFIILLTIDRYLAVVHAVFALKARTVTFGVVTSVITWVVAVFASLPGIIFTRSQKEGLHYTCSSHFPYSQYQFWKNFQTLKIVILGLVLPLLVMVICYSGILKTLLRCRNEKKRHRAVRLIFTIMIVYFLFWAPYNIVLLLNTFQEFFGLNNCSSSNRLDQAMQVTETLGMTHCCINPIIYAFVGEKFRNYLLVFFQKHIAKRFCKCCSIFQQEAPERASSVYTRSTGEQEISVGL

anti-CCR5 mAb 2D7 (antibody): in assay [1], the % of cells stained was > 20 % of PBMC. The IC50 (usually the midpoint of a concentration-inhibition curve) in assay [2] worked out at 1.38 µg/mL. In assay [3], this substance showed an IC50, inhibition of JR-FL entry (luciferase reporter virus, U87MG-CD4+CCR5+ cells) of 0.026 µg/mL; an IC50, inhibition of cell-cell fusion (RET assay, PM1 and HeLa-EnvJR-FL+ cells) of 1.6 µg/mL; a K (= IC50) of the median effect fit, inhibition of cell-cell fusion (RET assay) of 0.36 µg/mL. The same substance gave a % of cells stained (% of L1.2-CCR5+ cells) in assay [4] above 90.

“anti-CCR5 monoclonal antibody PA14 (ATCC No. HB-12610)”: in assay [1], the % of cells stained was > 20 % of PBMC and the fold difference of m.f.i. against PA9 amounted to 7 fold. The same substance yielded a half-inhibitory concentration (IC50) in assay [2] of 1.58 µg/mL. Also, in assay [3], the IC50, inhibition of JR-FL entry (luciferase reporter virus, U87MG-CD4+CCR5+ cells) was 0.024 µg/mL; the IC50, inhibition of RANTES-induced calcium influx in L1.2-CCR5+ cells amounted to 50 µg/mL; the IC50, inhibition of cell-cell fusion (RET assay, PM1 and HeLa-EnvJR-FL+ cells) was 1.7 µg/mL; the IC50 of calcium influx inhibition, PA14 against 2D7 stood at 8 fold. The substance also yielded a % of cells stained (% of L1.2-CCR5+ cells) in assay [4] above 90.

For “CD4-IgG2 (from UniProt P01730 26-204; P01730 26-204) (Fc fusion)”, the K (= IC50) of the median effect fit, inhibition of env-mediated membrane fusion (RET assay) in assay [5] was 0.31 µg/mL.

In turn, T-20 peptide returned a K (= IC50) of the median effect fit, inhibition of env-mediated membrane fusion (RET assay) in assay [5] of 0.017 µg/mL.
